Source: patent US20200376136A1 (Regeneron, published 2020)

Molecular target: T1, human CD3 (human, UniProt P07766 23-207; P04234 22-171)
T1 construct: As expressed on Jurkat cells or human T cells within the T cell receptor complex; also called hCD3
Experiment: FACS assays

T1 sequence (P07766 23-207 limits assumed, chain 1 of 2): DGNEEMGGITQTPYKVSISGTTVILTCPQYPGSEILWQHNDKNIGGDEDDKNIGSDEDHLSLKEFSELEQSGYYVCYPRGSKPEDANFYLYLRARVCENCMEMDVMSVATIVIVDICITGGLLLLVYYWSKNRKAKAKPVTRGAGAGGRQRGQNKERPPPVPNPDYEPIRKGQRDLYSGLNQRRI
T1 sequence (P04234 22-171 limits assumed, chain 2 of 2): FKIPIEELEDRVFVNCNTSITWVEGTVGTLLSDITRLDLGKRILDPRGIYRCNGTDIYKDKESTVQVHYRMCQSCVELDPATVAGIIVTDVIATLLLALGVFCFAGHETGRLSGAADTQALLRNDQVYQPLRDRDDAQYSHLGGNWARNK

binding result: binds
B1: CD3-VH-G (antibody, V domains shown)
VH: EVQLVESGGGLVQPGRSLRLSCAASGFTFDDYSMHWVRQAPGKGLEWVSGISWNSGSKGYADSVKGRFTISRDNAKNSLYLQMNSLRAEDTALYYCAKYGSGYGKFYHYGLDVWGQGTTVTVSS
VL: DIQMTQSPSSLSASVGDSVTITCRASQSINNYLNWYQQKPGKAPKLLIYTASSLLSGVPSRFSGSGSGTDFTLTISGLHPEDFATYFCQQSFSTPPITFGQGTRLDIK
notes: CD3-VH-P engineered to germline frameworks
